Measured values from publication PMC3602351.

Target: human ALDH2 T244A substituted enzyme (human) (UniProt P05091)
Test: crystal structure

Substance: human ALDH2 T244A substituted enzyme (from UniProt P05091 18-517)
- stoichiometry N: 4
